# From publication PMC10881517
# Assays:
# [1] = molecular target: Pcdh15 EC1-11 PICA (cis-dimer); test: AFM force-clamp spectroscopy (single molecule); Cdh23 EC1-27-Fc dimer covalently on the cantilever, Pcdh15 EC1-11 PICA dimer covalently on the coverslip (sortagging); cantilever retracted 70 nm before clamping, clamping time 20 s; 25 mM HEPES, 100 mM NaCl, 50 mM KCl, 50 µM CaCl2; lifetimes from exponential fits of survival probability, Bell model fits
# [2] = molecular target: full-length Cdh23 EC1-27 (27 domains); test: AFM force-clamp spectroscopy (single molecule); Pcdh15 EC1-2 covalently on the cantilever, Cdh23 variants (EC1-5, EC1-10, EC1-21, EC1-27) covalently on the coverslip (sortagging, Mal-PEG2-NHS); contact 1-2 s, clamp 10 s; 25 mM HEPES, 100 mM NaCl, 50 mM KCl, 50 µM CaCl2; modified sliding-rebinding model fit with unfolding probabilities
# Cdh23 EC1-5 = test: as above
# Cdh23 EC1-21 = test: as above
# Cdh23 EC1-10 = test: as above
# [3] = molecular target: Mouse Cdh23 EC1-2 (mouse) (UniProt Q99PF4); test: AFM force-clamp spectroscopy (single molecule); Pcdh15 EC1-2 (WT or R113G) covalently on the cantilever, Cdh23 EC1-2 covalently on the coverslip (sortagging, Mal-PEG5000-NHS); contact 1-2 s, clamp 10 s; 25 mM HEPES, 100 mM NaCl, 50 mM KCl, 50 µM CaCl2; modified sliding-rebinding model fit of lifetime against force
# Sequence of Mouse Cdh23 EC1-2 (mouse) (Q99PF4 24-228): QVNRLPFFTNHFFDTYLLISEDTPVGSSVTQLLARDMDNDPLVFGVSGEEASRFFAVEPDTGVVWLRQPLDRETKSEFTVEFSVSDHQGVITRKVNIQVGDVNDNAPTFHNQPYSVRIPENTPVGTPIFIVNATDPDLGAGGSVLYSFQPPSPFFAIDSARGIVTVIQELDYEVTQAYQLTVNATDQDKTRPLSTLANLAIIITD
substance,measurement,setting,value
Cdh23 EC1-27 with the Fc region on its C-terminus (cis-dimer) (Fc fusion),"intrinsic lifetime (τ0), low-force slip regime extrapolated to zero force",[1],31.8 s
same,lifetime in the ideal-bond region (τ0),[1],6.3 s
same,lifetime of the short-lived component of the bi-exponential decay at high forces (>70 pN),[1],1 s
same,τ0 of the Bell fit of the second slip region,[1],8.4 s
Mouse Pcdh15 EC1-2 (from UniProt Q99PJ1 27-259) (domain or fragment),"k+1 (intrinsic rate of reorganization, sliding-rebinding model)",[2],0.5 s⁻¹
same,"k+2 (intrinsic rate of rebinding, sliding-rebinding model)",[2],0.5 s⁻¹
same,"k-1 (intrinsic off-rate at zero force, single bond of the sliding-rebinding model)",[2],0.29 s⁻¹
same,zero-force lifetime,[2],3.4 s
same,"k+1 (intrinsic rate of reorganization, sliding-rebinding model)",Cdh23 EC1-5,0.9 s⁻¹
same,"k+2 (intrinsic rate of rebinding, sliding-rebinding model)",Cdh23 EC1-5,29.4 s⁻¹
same,"k-1 (intrinsic off-rate at zero force, single bond of the sliding-rebinding model)",Cdh23 EC1-5,0.61 s⁻¹
same,zero-force lifetime,Cdh23 EC1-5,1.6 s
same,"k+1 (intrinsic rate of reorganization, sliding-rebinding model)",Cdh23 EC1-21,1.2 s⁻¹
same,"k+2 (intrinsic rate of rebinding, sliding-rebinding model)",Cdh23 EC1-21,0.8 s⁻¹
same,"k-1 (intrinsic off-rate at zero force, single bond of the sliding-rebinding model)",Cdh23 EC1-21,0.35 s⁻¹
same,"k+1 (intrinsic rate of reorganization, sliding-rebinding model)",Cdh23 EC1-10,0.9 s⁻¹
same,"k+2 (intrinsic rate of rebinding, sliding-rebinding model)",Cdh23 EC1-10,7.8 s⁻¹
same,"k-1 (intrinsic off-rate at zero force, single bond of the sliding-rebinding model)",Cdh23 EC1-10,0.39 s⁻¹
"Pcdh15 EC1-2 (R113G), Q99PJ1 27-259 (domain or fragment; other documents disagree on this pair)","k+1 (intrinsic rate of reorganization, sliding-rebinding model)",[3],0.6 s⁻¹
same,"k-1 (intrinsic off-rate at zero force, single bond of the sliding-rebinding model)",[3],0.3 s⁻¹
